The values below come from US20050043235A1 (LICENTIA, published 2005).

For one experiment, the target named is T1, neuropilin-1-Ig (UniProt O14786 22-856).
T1 construct: also called NP1; NP-1; not shown: Ig part of the fusion, not described
T1 sequence (looked up): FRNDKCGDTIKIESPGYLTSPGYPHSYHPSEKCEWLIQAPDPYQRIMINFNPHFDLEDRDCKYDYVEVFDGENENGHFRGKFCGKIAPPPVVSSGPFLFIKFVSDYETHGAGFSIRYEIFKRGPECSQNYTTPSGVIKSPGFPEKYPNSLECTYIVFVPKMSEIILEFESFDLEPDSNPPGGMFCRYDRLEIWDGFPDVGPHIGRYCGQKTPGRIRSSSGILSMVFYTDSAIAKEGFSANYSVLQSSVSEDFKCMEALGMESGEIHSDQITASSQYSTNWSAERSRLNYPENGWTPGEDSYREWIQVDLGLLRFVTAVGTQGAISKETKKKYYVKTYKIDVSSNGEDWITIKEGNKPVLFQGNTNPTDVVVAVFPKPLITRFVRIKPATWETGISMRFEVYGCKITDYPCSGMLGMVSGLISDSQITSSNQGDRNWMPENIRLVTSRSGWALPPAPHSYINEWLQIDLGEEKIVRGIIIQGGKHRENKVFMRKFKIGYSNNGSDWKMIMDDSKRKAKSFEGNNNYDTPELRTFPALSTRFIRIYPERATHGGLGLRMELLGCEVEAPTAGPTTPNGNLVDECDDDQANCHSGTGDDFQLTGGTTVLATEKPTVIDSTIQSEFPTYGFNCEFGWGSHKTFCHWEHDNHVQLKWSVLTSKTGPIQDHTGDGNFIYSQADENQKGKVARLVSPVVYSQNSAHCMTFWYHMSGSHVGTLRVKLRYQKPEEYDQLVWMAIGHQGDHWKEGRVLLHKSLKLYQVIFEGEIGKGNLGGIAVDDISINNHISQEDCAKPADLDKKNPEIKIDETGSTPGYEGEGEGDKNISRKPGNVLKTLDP
Kind of experiment: precipitation of 35S-labelled protein with neuropilin-1-Ig, SDS-PAGE (FIG. 5A).

Another experiment concerns the target T2, VEGFR-1-Ig (UniProt P17948 27-553).
T2 construct: not shown: Ig part of the fusion, not described
Kind of experiment: precipitation of 35S-labelled protein with VEGFR-1-Ig, SDS-PAGE (FIG. 5B).

T2 sequence (P17948 27-553): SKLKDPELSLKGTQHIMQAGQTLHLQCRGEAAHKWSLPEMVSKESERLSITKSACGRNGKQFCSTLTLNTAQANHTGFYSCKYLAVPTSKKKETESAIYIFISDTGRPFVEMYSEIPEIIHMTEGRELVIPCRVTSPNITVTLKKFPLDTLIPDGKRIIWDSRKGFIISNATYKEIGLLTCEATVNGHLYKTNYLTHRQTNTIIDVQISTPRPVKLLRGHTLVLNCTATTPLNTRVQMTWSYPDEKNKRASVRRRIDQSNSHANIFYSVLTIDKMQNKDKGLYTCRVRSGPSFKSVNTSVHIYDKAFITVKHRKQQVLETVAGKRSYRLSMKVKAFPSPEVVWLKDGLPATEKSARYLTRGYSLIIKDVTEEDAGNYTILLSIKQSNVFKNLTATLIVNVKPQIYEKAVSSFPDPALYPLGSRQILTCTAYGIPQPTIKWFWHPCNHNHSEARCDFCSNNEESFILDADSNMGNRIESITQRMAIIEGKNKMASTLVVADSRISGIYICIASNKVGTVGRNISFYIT

B1: VEGF-CΔNΔC (ligand)
chain: TEETIKFAAAHYNTEILKSIDNEWRKTQCMPREVCIDVGKEFGVATNTFFKPPCVSVYRCGGCCNSEGLQCMNTSTSYLSKTLFEITVPLSQGPKPVTISFANHTSCRCMSKLDVYRQVHSIIRR
notes: also called N C; VEGF-C short form
On to B1, for which the binding result with neuropilin-1-Ig and with VEGFR-1-Ig was “no binding” in each case.

B2: CA65, chimeric protein of the VEGF homology domain of VEGF-C and VEGF exon 7-8 encoded sequences (ligand)
chain: TEETIKFAAAHYNTEILKSIDNEWRKTQCMPREVCIDVGKEFGVATNTFFKPPCVSVYRCGGCCNSEGLQCMNTSTSYLSKTLFEITVPLSQGPKPVTISFANHTSCRCMSKLDVYRQVHSIIRRPCGPCSERRKHLFVQDPQTCKCSCKNTDSRCKARQLELNERTCRCDKPRR
notes: Exon 7-8 is used here; also called pEBS7/CA65; pREP7/CA65
Consider B2, for which, in the experiment with VEGFR-1-Ig, the binding result is “no binding”.

B3: CA89, chimeric protein of the VEGF homology domain of VEGF-C and VEGF exon 6-8 encoded sequences (ligand)
chain: TEETIKFAAAHYNTEILKSIDNEWRKTQCMPREVCIDVGKEFGVATNTFFKPPCVSVYRCGGCCNSEGLQCMNTSTSYLSKTLFEITVPLSQGPKPVTISFANHTSCRCMSKLDVYRQVHSIIRRKSVRGKGKGQKRKRKKSRYKSWSVPCGPCSERRKHLFVQDPQTCKCSCKNTDSRCKARQLELNERTCRCDKPRR
notes: CA89 is released only with heparin in the medium; also called pEBS7/CA89; pREP7/CA89
On to B3, for which the binding result in the experiment with VEGFR-1-Ig is “no binding”.
